Reference: article doi:10.1101/2024.05.08.593097
Where two headings read alike, the source gives them in different places.

Tests used:
[1] = target: R358E/K361E-CCaCalpL (Candidatus Cloacimonas acidaminovorans strain Evry)
[2] = target: T1, CalpL (CCaCalpL, SAVED-Lon protease) (Candidatus Cloacimonas acidaminovorans, UniProt B0VHB4 1-506); assay: cryo-EM structure
T1 sequence: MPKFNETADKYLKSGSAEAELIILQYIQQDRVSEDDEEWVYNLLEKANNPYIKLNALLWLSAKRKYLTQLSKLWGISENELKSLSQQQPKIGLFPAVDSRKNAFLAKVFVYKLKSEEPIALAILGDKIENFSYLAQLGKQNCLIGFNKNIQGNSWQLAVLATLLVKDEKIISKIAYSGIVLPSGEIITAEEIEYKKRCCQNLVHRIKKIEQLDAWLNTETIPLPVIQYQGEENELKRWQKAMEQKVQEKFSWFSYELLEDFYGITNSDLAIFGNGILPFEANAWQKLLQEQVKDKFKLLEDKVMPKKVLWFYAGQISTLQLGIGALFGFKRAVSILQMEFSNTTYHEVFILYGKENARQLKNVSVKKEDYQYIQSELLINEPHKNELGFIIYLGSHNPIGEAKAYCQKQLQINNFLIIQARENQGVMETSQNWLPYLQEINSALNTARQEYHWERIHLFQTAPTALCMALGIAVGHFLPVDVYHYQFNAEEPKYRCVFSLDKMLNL

[3] = target: T1, CalpL (CCaCalpL, SAVED-Lon protease); assay: cryo-EM structure; remark: listed apart in the source
[4] = target: T1, CalpL (CCaCalpL, SAVED-Lon protease); assay: cryo-EM structure; remark: listed apart in the source

R358E/K361E-CCaCalpL (enzyme)
ring nuclease activity (cA4 cleavage), reduction against wt-CCaCalpL [1]: > 100 fold

AAAA (structured_RNA, cyclic tetra-adenylate, 3'-5' linked ring closed by phosphodiester) [cA4]
binding result [2]: binds

AAAA (ssRNA, 3'-phosphate) [A4p]
binding result [3]: binds

AAAA (ssRNA, 2',3'-cyclic phosphate at 3' end) [A4>p]
binding result [4]: binds
